We go through 1 molecule from patent US20200181245A1 (University of California, published 2020).

Assay [1] deals with T1, His and avidin-tagged 3RTau (352), recombinant full length 3R Tau protein (UniProt P10636-2 2-352, limits assumed).
T1 construct: mature; Used for phage panning, ELISA (immobilized) and immunoblot; The His and avidin tags are not described further; also called 3RT protein; 3-repeat Tau
The assay can be described thus: ELISA and immunoblot. (In general: An ELISA detects its analyte on a solid surface through an enzyme-linked reagent.)

The target in assay [2] is T2, tau352 (human tau isoform 352, 15N-labelled, His tag removed by TEV cleavage) (human, UniProt P10636-2 2-352).
T2 construct: mature; Uniformly 15N-labelled for NMR
The assay can be described thus: 2D 1H-15N HSQC NMR, about 1:1 molar ratio. As to the method: The interaction between scFv and tau352 was further studied by NMR spectroscopy. For this purpose, tau352 and 3RT antibody were recombinantly expressed in E. coli and HEK293 cells, respectively. 2D ¹H-¹⁵N heteronuclear single quantum coherence (HSQC) spectra were recorded on tau352 in absence and presence of 3RT antibody (FIG. 10A). The HSQC of tau352 has a narrow chemical shift dispersion indicative of an intrinsically disordered protein (FIG. 10A).
NMR experiments were recorded on a Bruker Avance 800 MHz spectrometer with 5% D₂O as lock solvent at 25° C. The 2D ¹H-¹⁵N HSQC experiments were recorded on a […] ¹⁵N labeled tau352 sample, for the interaction measurement an approximate 1:1 molar ratio between tau352 and scFv was used. For the 2D ¹⁵N HSQC, 512 data points were recorded in the indirect dimension with 128 scans per point for free tau352 and scFv-bound tau352.

T1 sequence (P10636 other isoform, or with tags, fused parts or gaps limits assumed): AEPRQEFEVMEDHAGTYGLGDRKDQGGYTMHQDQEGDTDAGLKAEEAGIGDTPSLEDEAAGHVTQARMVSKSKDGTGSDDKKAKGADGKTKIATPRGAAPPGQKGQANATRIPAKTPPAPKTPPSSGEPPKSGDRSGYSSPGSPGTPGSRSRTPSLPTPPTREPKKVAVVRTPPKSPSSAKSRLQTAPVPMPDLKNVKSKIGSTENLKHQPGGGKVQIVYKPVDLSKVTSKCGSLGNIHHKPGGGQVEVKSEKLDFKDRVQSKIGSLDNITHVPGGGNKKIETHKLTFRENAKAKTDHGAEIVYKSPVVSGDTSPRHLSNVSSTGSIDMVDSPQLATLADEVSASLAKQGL
T2 sequence (P10636 other isoform, or with tags, fused parts or gaps): as the sequence (P10636 other isoform, or with tags, fused parts or gaps limits assumed) above

B1: 3RT single chain antibody (Clone 5F10) (scFv)
scFv: MEQVNLRESGAEVKKPGASVKVSCKVSGYTFTGYYMHWVRQAPGQGLEWMGWINSNSGATKYAQKFQGRVTMTRDTSITTAYMELSSLRSDDTAVYYCARGARDGYGFDYWGQGTLVTVLAGGGGSGGGGSGGGGSGAPSYVLTQPPSASGTPGQRVTISCSGGSSNIGSNAVSWYQQLPGTAPKLLIFTNDQRPSGVPDRFSGSKSGTSAPLAISGLQSEDESDYYCATWDDSLNGWVFGGGTKVTVRS
notes: Human scFv from a phage display library; It was expressed from mammalian scFV cassettes; also called 3RT scFV; 3RTau scFV
With B1, the binding result in assay [1] and in assay [2] was “binds” in each case.
